Tests used:
Type in all cases: cell-based, mouse
M2 oocytes = test: Co-localization of rSLLP1 binding sites and SAS1R on oocytes; conditions: oocytes incubated with rSLLP1, probed with SLLP1 and SAS1R antibodies
Method: Zona intact-, zona free oocytes, early embryos and sperm were collected as before (10), blocked and probed with 1st and 2nd antibody and imaged with UV-microscopy. For co-LC studies, gametes were incubated with soluble rSAS1R or rSLLP1, washed, probed with 1st- and 2nd antibodies and imaged with UV-microscopy.
Mouse oocytes were also examined for co-localization of SLLP1 binding sites and SAS1R localization. Oocytes were incubated with gradually increasing concentrations (0-100 μg/ml) of recombinant SLLP1 for 1 h, and then oocytes were washed five times and incubated with guinea pig anti-recombinant SAS1R polyclonal antibody (1:200) and rat anti-recombinant SLLP1 polyclonal antibody (1:200), simultaneously, in 0.1% NGS/media for 1 h at 37° C. and 5% CO2. Oocytes were washed five times and incubated with goat anti-guinea pig/Cy3 Red antibody (1:200) (Jackson ImmunoResearch, PA) and goat anti-rat/FITC Green antibody (1:200) (Jackson ImmunoResearch, PA), in 0.1% NGS/media for 1 h at 37° C. and 5% CO2. Oocytes were washed and mounted in media on glass slides. SLLP1 and SAS1R images were captured separately with MrGrab 1.0 (Carl Zeiss Vision GmbH, Germany) on the Zeiss Standard 18 ultraviolet microscope and were merged digitally to evaluate their respective localizations.

cumulus intact oocytes = test: In vitro fertilization with cumulus-oocyte complexes (SLLP1 antiserum, recmSLLP1); conditions: for % Fertilization: oocytes 45 min prior to insemination
Method: Hybrid F1 mice (C57BL/6J×CBA) were used in all experiments. Suspensions of epididymal spermatozoa from sexually mature male mice were prepared for insemination of isolated oocytes. Oocytes were obtained from 28-day-old females superovulated with 10 IU PMSG and 10 IU hCG, injected intraperitoneally 48 h apart. Females were killed 16 h after hCG injection and both oviducts were immediately removed and placed in mineral oil.
In vitro fertilization with cumulus intact oocytes was conducted with sperm dispersed from cauda epididymides placed for 5 min in 200 μl drops of fertilization medium under paraffin oil. The sperm suspension was diluted to a concentration of 10^6 sperm/ml in a volume of 200 μl and then incubated for 120 min in a humidified tissue culture incubator (37° C., 5% CO2 in air) to allow capacitation. In the experiments where anti-recmSLLP1 serum was tested, spermatozoa were incubated with varying concentrations of decomplemented (56° C., 30 min) immune or preimmune serum for the last 45 min of capacitation. In the experiments where recmSLLP1 was evaluated, spermatozoa were incubated under standard capacitating conditions.
Cumulus masses were placed in 135 μl drops of fertilization medium (one mass per drop) under paraffin oil and were incubated for 45 min with immune or preimmune serum or in presence or absence of recmSLLP1 prior to insemination. Fifteen μl of the sperm suspension (final concentration: 10^5 sperm/ml) was then added to each cumulus mass drop. Thus, sera or recombinant protein was present in the incubation droplet during gamete interaction. Six hours following insemination oocytes were relocated in 100 μl drops of fertilization medium under mineral oil. Following overnight incubation, eggs were stained in Hoechst dye (10 μg/ml) for 10 min and washed 3 times in fertilization medium. The eggs were then placed in a 5 μl drop of fertilization medium between a microscope slide and an elevated coverslip, and visualized at 160× using light and fluorescence microscopy (Zeiss Axioplan). Two cells embryos were scored as fertilized, while one-celled oocytes were scored as unfertilized.

Metaphase II eggs = test: Egg labeling by indirect immunofluorescence; conditions: 100 μg/ml protein, 45 min
Method: Metaphase II eggs were obtained as previously described (Coonrod et al, 1999) and incubated with 5% NGS/media for 30 min. Oocytes were washed five times in TYH medium and incubated with 100 μg/ml recmSLLP1 or 100 μg/ml lysozymes for 45 min at 37° C. and 5% CO2. Oocytes were washed five times and incubated with guinea pig anti-recmSLLP1 polyclonal antibody (1:50), sheep anti-human lysozyme (1:25) or rabbit anti-chicken lysozyme (1:400) in 5% NGS/media for 1 h at 37° C. and 5% CO2. Oocytes were washed five times and incubated with donkey anti-guinea pig/Texas Red antibody (1:200) or goat anti-guinea pig/FITC antisera 1:200), donkey anti-sheep and goat anti-rabbit FITC-labeled secondary antibody (1:200) (Jackson ImmunoResearch), respectively in 5% NGS/media for 1 h at […] 37° C. and 5% CO2. Oocytes were washed and mounted in media onto glass slides and visualized under a Zeiss Standard 18 ultraviolet microscope. Images were captured by using MrGrab 1.0 (Carl Zeiss Vision GmbH, Germany).

B1: recmSLLP1: mature mouse SLLP1, residues 94 to 221, six-histidine C terminal tag, expressed in E. coli, about 15 kDa (protein)
chain: KVFSRCELAKEMHDFGLDGYRGYNLADWVCLAYYTSGFNTNAVDHEADGSTNNGIFQISSRRWCRTLASNGPNLCRIYCTDLLNNDLKDSIVCAMKIVQEPLGLGYWEAWRHHCQGRDLSDWVDGCDF
modifications: left off: small tags and cut ends
- binding to oocytes (M2 oocytes): binds to oocyte microvillar domain and co-localizes with native SAS1R
- difference in percentage of fertilization vs control (cumulus intact oocytes; recmSLLP1 50 μg/ml): no significant difference
- % Fertilization (cumulus intact oocytes; recmSLLP1 50 μg/ml): 48%
- inhibition of fertilization rate vs control (cumulus intact oocytes; recmSLLP1 200 μg/ml, P≦0.05): 73%
- % Fertilization (cumulus intact oocytes; recmSLLP1 200 μg/ml): 12%
- fluorescence of mouse oocytes after incubation with protein and respective antibody (Metaphase II eggs): fluorescent labeling within the perivitelline space and over much of the oocyte surface

Reference: patent publication US9803012B2, “Compositions and methods for regulating SAS1R” (UNIVERSITY OF VIRGINIA PATENT FOUNDATION, priority 2005, dated 2017)
